Measurements: US20150203825A1, “Laccase of Podospora Anserina and Uses of Same” (priority 2012, published 2015)

B1: Podospora anserina laccase, SEQ ID No. 3 (Podospora anserina S mat+) (protein)
chain: SVARKDWESPTYSWLYQFPLPIPPVKTPKLTVTNLVTGNPIHYYEVYINRFTQQVYPNKGPATLVGYDGISPGPTFIVERGHEAVVRFVNNASIENSVHLHGSYSRAPWDGWAEDVTMPGEFKDYYYPNQQAARFLWYHDHAFMHTAENAYFGQAGAYIIHDPAEDALNLPSGYGVHDIPLVLSSKQYNNNGSLFTTNGETDSLFGDVIHVNGQPWPYFNVEPRKYRLRFLDAAVSRTFKLYFQRQTGSSAKIPFQVIATDAGLMASPATTNDLYISMGERYEVVFDFSPFAGQNITLRNTDDVGQDDDYLHTNKVMRFIVGNTPVTDTSSIPSTLATVDWPTSDGTGVDRHFKFDRSNGEWQINGVVFADVNNRVLANVPRGKVEIWELENGGGGWSHPIHIHLVDFKVLWRSNDDGRPVYNYEAQGLKDVVWLAPNEIVRVEAHYAPWDGVYMFHCHNLIHEDHDMMAAFNVTALTDLGYNETAFRDPMEARWRAEPVTAAKFTTAAITEKIQFMAGLQPYNNVEEVLEVLDEYWATHSKRDAQDPAPKTRRMRIEGGKVKEVR
notes: purified
B2: laccase of SEQ ID No. 3: Podospora anserina laccase of SEQ ID No. 1 with an additional N-terminal serine, expressed in Pichia pastoris from the pFD56 vector (protein, listed as Podospora anserina)
chain: B1 chain

Assays:
[1] = substrate: CCn1c(=NN=c2sc3cc(S(=O)(=O)O)ccc3n2CC)sc2cc(S(=O)(=O)O)ccc21; assay: purified protein, by the assay type; conditions: other: ABTS 0 to 1.5 mM, 0.1 M citrate/phosphate buffer, pH 3.4, 37° C.
[2] = substrate: COc1cc(/C=N/N=C/c2cc(OC)c(O)c(OC)c2)cc(OC)c1O; assay: Enzymatic test, oxidation of syringaldazine (SGZ) (stationary-phase kinetics); assay type: biochemical, Podospora anserina; conditions: other: SGZ 0 to 50 μM (diluted in methanol), citrate-phosphate 50 mM buffer, pH 7, 37° C., 530 nm
Method: The enzymatic tests are carried out using a Varian spectrophotometer in a 0.1 M citrate/phosphate buffer at 37° C. in a volume of 3 ml by monitoring the oxidation of various substrates at a given wavelength as a function of time. The specific activity of the enzyme is expressed in μmol of substrates oxidized per minute and per mg of protein.
The experiments are carried out at 37° C. on a Varian spectrophotometer in a citrate-phosphate 50 mM buffer, pH 7. The concentration of SGZ, diluted in methanol, varies in the test from 0 to 50 μM. The test, initiated by the addition of enzyme, consists in monitoring the oxidation of the SGZ at 530 nm by colorimetric change (ε530nm=64 mM^−1 cm^−1).

[3] = Electrochemical measurements, enzymatic electrode with redox polymer, reduction of O2; conditions: pH 7, in the presence of Cl
Text: At pH 7 and in the presence of Cl, the catalytic current for the reduction of O2 is 40% greater for the electrode modified with the novel enzyme. In addition, the stability over time is 200% greater.

[4] = Enzymatic activity (SGZ oxidation) in the presence of NaCl; assay type: biochemical; conditions: 150 mM of NaCl, SGZ oxidation at 530 nm, 37° C., 50 mM phosphate-citrate buffer, pH 7
Method: In order to verify the influence of sodium chloride (present in a physiological medium) on the activity of the laccase, increasing concentrations of NaCl were added to the activity test consisting in monitoring the oxidation, at 530 nm, of the SGZ at 37° C. in a 50 mM phosphate-citrate buffer, pH 7.

| catalytic current for the reduction of O2, greater than electrode with laccase of Trametes versicolor [3] [%] | Molecule | Km [1] [µM] | kcat [1] [s⁻¹] | Km [2] [µM] | kcat [2] [s⁻¹] | stability over time, greater than electrode with laccase of Trametes versicolor [3] [%] | oxidation activity still exhibited in the presence of NaCl [4] [%] |
| --- | --- | --- | --- | --- | --- | --- | --- |
| – | B1 | 307 | 1372 | 10.9 | 1.3 | – | – |
| 40 | B2 | – | – | – | – | 200 | 70 |
